Molecular target: methylated PP2A C subunit (epitope-tagged, immunoprecipitated), P67775
Sequence (P67775 whole entry): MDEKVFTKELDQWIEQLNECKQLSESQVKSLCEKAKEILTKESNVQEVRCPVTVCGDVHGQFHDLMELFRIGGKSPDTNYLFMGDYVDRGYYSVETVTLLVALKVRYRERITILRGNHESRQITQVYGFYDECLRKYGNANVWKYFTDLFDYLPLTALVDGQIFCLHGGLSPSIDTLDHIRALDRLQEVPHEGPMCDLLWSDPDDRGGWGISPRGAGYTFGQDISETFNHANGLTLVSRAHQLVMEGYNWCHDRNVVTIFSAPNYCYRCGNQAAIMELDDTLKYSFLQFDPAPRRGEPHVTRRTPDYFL

B1: recombinant human Protein Phosphatase Methylesterase-1 (PME-1) (protein)
chain: MSALEKSMHLGRLPSRPPLPGSGGSQSGAKMRMGPGRKRDFSPVPWSQYFESMEDVEVENETGKDTFRVYKSGSEGPVLLLLHGGGHSALSWAVFTAAIISRVQCRIVALDLRSHGETKVKNPEDLSAETMAKDVGNVVEAMYGDLPPPIMLIGHSMGGAIAVHTASSNLVPSLLGLCMIDVVEGTAMDALNSMQNFLRGRPKTFKSLENAIEWSVKSGQIRNLESARVSMVGQVKQCEGITSPEGSKSIVEGIIEEEEEDEEGSESISKRKKEDDMETKKDHPYTWRIELAKTEKYWDGWFRGLSNLFLSCPIPKLLLLAGVDRLDKDLTIGQMQGKFQMQVLPQCGHAVHEDAPDKVAEAVATFLIRHRFAEPIGGFQCVFPGC
PP2A methylesterase activity: demethylation of immunoprecipitated C subunit, immunoblot with methylation-sensitive antibody 4b7: human PME-1 is a PP2A methylesterase | amount of 3H-methyl groups remaining on C subunit after 1 h at 32° C., SDS-PAGE: PME-1 was clearly able to demethylate PP2A C subunit as measured by this assay | methylesterase activity towards PP2A C subunit: lysates of bacteria expressing PME-1 contain a PP2A methylesterase activity not found in bacterial lysates lacking PME-1 | signal of the antibody that only recognizes unmethylated PP2A against a methylation-insensitive antibody, immunoblot: PME-1 was clearly able to demethylate PP2A C subunit, as measured by this assay

Reference: patent publication US6528295
